Laboratory results taken from patent US20240189443A1, “PD-L1 AND TLR7 DOUBLE-TARGETING NANOBODY COUPLING DRUG AND USE THEREOF IN ANTI-TUMOR” (SHANGHAI INSTITUTE OF MATERIA MEDICA, CHINESE ACADEMY OF …, priority 2021, published 2024).

target: PD-L1 (human PD-L1 protein of the ELISA of Example 16) (human, UniProt Q9NZQ7 19-238, limits assumed); test: ELISA; affinity relative to original antibody h_Nb2 VHH (SEQ ID NO.25); conditions: not given
Sequence (Q9NZQ7 19-238 limits assumed): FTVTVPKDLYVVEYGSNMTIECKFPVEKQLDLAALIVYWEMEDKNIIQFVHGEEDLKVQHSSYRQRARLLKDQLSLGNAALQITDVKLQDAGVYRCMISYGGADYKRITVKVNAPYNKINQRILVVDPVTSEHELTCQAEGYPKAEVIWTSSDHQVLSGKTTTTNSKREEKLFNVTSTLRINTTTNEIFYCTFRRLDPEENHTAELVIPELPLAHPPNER

Increased relative affinity | Molecule
7.21 relative | h_Nb2_P100R (VHH, also called 115) VHH: DVQLQESGGGLVQPGGSLRLSCAASGFTFGDRWMYWLRQAPGKGLEWVSSINPAGRSTYYADSVKGRFTISRDNAKNTLYLQMNSLKSEDTAVYYCTKDRGGYQKGQGTQVTVSS

target: T1, human PD-L1 on cell strain HEK293T/hPD-L1 (human, UniProt Q9NZQ7 19-290); test: flow cytometry on HEK293T/hPD-L1, 10 µg/mL, anti-human IgG Fc (FITC); conditions: not given
T1 construct: whole, on cells
T1 sequence (Q9NZQ7 19-290): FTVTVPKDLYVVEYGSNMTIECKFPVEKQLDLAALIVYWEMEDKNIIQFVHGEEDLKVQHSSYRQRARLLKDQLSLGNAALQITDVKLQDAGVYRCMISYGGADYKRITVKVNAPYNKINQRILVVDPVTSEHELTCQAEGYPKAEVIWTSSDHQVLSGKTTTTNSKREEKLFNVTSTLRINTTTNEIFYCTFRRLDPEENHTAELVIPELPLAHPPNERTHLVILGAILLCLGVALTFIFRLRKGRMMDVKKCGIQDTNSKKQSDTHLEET
Experimental: (§1) The cell strain HEK293T/hPD-L1 was digested, and centrifugationwas performed to remove the supernatant; the cells were washed one time with PBS and the cell density was adjusted to 2.5×10⁶ cells/mL; each cell sample was added to a 100 μL cell suspension, that is, a 2.5×10⁵ cell/sample was comprised; different anti-human PD-L1 candidate nanobodies (the concentration is 10 μg/mL) were respectively added to the samples; incubating for 20 min at 4° C.; centrifuging, removing supernatant, and the cells were washing once with PBS; using diluted antibody anti-human IgG Fc (FITC) as secondary antibody, and the cells were re-suspended; incubating at 4° C. for 20 min; centrifuging, removing supernatant, the cells were washing twice with PBS, and transferred to a flow tube; and was performed on-machine detection by using a flow cytometer to obtain the binding activity of the candidate nanobody and human PD-L1, as shown in FIG. 13.

Molecule | binding result
anti-human PD-L1 nanobody h_Nb12 (Fc fusion, not shown: Fc of human IgG1 from vector pFUSE-hIgG1-Fc) DVQLQESGGGLVQAGGSLRLSCAASGRTFSSRAMGWFRQAPGKEREFVAAISGSGRNTYYADSVKGRFTISRDNAKNSVNLQMNSLKPEDTAVYYCNAAGGGITIATMTQRTQYDYWGQGTQVTVSS | binds
anti-human PD-L1 nanobody h_Nb5 (Fc fusion, not shown: Fc of human IgG1 from vector pFUSE-hIgG1-Fc) DVQLQESGGGAVQSGESLRLSCAASGRDLMFYDVAWFRQAPGKEREGVSYIRSSGTLTKYADSVKGRFTISRDNDKNTVSLQMNSLNPEDTAKYYCAARLQSATSHSDLREDEFNSWGQGTQVTVSS | binds
anti-human PD-L1 nanobody h_Nb1 (Fc fusion, Cloned into pFUSE-mIgG2b-Fc and pFUSE-hIgG1-Fc; not shown: Fc of human IgG1 from vector pFUSE-hIgG1-Fc) DVQLQESGGGLVQPGGSLRLSCAASGFTFSSYAMSWVRQAPGKGLEWVSDINSGGDNTDYADSVKGRFTISRDNAKNTLYLQMNSLKPEDTAVYYCARGPKLCFSSWGQGTQVTVSS | binds
anti-human PD-L1 nanobody h_Nb6 (Fc fusion, not shown: Fc of human IgG1 from vector pFUSE-hIgG1-Fc) DVQLQESGGGLAQPGGSLRLSCAASGFTFSSYAMSWARQAPGKGLEWVAGIYRGGSDTYYADSVKGRFTISRDNTKNTLYLQMNSLKPEDTALYYCIQGWGLGYANYDYWGQGTQVTVSS | binds
anti-human PD-L1 nanobody h_Nb13 (Fc fusion, not shown: Fc of human IgG1 from vector pFUSE-hIgG1-Fc) DVQLQESGGGLVQPGGSLRLSCAASGSIFSINAMGWYRQAPGKSRELVAAITSGGSTNYADSVKGRFTISRDTAKNTVYLLMNSLEPEDTAVYYCNVERRRPPHYLSEYDFDWGQGTQVTVSS | binds

Continued, values first:

binding result | Molecule
binds | anti-human PD-L1 nanobody h_Nb9 (Fc fusion, not shown: Fc of human IgG1 from vector pFUSE-hIgG1-Fc) DVQLQESGGGLVQPGGSLRLSCASSGSIFGLGVKGWYRQPPGNQREMVAQIISGGRISYADSVKGRFTISRDNAKNTVYLQMNSLKPEDTAVYYCNAWGPGQRNYWGRGTQVTVSS
binds | anti-human PD-L1 nanobody h_Nb2 (Fc fusion, not shown: Fc of human IgG1 from vector pFUSE-hIgG1-Fc) DVQLQESGGGLVQPGGSLRLSCAASGFTFGDRWMYWLRQAPGKGLEWVSSINPAGRSTYYADSVKGRFTISRDNAKNTLYLQMNSLKSEDTAVYYCTKDPGGYQKGQGTQVTVSS
binds | anti-human PD-L1 nanobody h_Nb4 (Fc fusion, not shown: Fc of human IgG1 from vector pFUSE-hIgG1-Fc) DVQLQESGGGLVQAGGSLRLSCAAPSRMFSGYTMGWYRQAPGKQRELVAQIANGGFTDYIDSVKGRFSISRDTVLNMMYLQMNSLKPEDTAVYYCNLVLVNGIPTRNWGQGTQVTVSS
binds | anti-human PD-L1 nanobody h_Nb26 (Fc fusion, not shown: Fc of human IgG1 from vector pFUSE-hIgG1-Fc) DVQLQESGGGLVQPGGSLRLSCAAPGSIFRINAMGWYRQAPGKQRELVAAITSGGSTNYADSVQGRFTISRDNAKNTVYLQMNSLKPEDTAVYYCNVERRRPPHYYSDYDFDWGQGTQVTVSS

target: T2, HEK293T/hPD-L1 (Homo sapiens, UniProt Q9NZQ7); test: Human PD-L1 binding activity assay of candidate anti-human PD-L1 nanobodies (flow cytometry); conditions: nanobody 10 μg/mL
T2 construct: expressed in transfected cells; host or cells: HEK293T
T2 sequence (Q9NZQ7 19-290): as the sequence (Q9NZQ7 19-290) above
Experimental: as §1, with “2.5×10^6” for “2.5×10⁶”, “2.5×10^5” for “2.5×10⁵”

Molecule | Binding activity with human PD-L1
h_Nb9: anti-human PD-L1 nanobody, VHH SEQ ID NO: 40 (protein, h_Nb9 Amino acid sequence of VHH) VHH: DVQLQESGGGLVQPGGSLRLSCASSGSIFGLGVKGWYRQPPGNQREMVAQIISGGRISYADSVKGRFTISRDNAKNTVYLQMNSLKPEDTAVYYCNAWGPGQRNYWGRGTQVTVSS | good binding activity
h_Nb13: anti-human PD-L1 nanobody, VHH SEQ ID NO: 48 (protein, h_Nb13 Amino acid sequence of VHH) VHH: DVQLQESGGGLVQPGGSLRLSCAASGSIFSINAMGWYRQAPGKSRELVAAITSGGSTNYADSVKGRFTISRDTAKNTVYLLMNSLEPEDTAVYYCNVERRRPPHYLSEYDFDWGQGTQVTVSS | good binding activity

Results, then the molecule that gave them:

Binding activity with human PD-L1 | Molecule
good binding activity | h_Nb12: anti-human PD-L1 nanobody, VHH SEQ ID NO: 44 (protein, h_Nb12 Amino acid sequence of VHH) VHH: DVQLQESGGGLVQAGGSLRLSCAASGRTFSSRAMGWFRQAPGKEREFVAAISGSGRNTYYADSVKGRFTISRDNAKNSVNLQMNSLKPEDTAVYYCNAAGGGITIATMTQRTQYDYWGQGTQVTVSS
good binding activity | h_Nb5: anti-human PD-L1 nanobody, VHH SEQ ID NO: 33 (protein, h_Nb5 Amino acid sequence of VHH) VHH: DVQLQESGGGAVQSGESLRLSCAASGRDLMFYDVAWFRQAPGKEREGVSYIRSSGTLTKYADSVKGRFTISRDNDKNTVSLQMNSLNPEDTAKYYCAARLQSATSHSDLREDEFNSWGQGTQVTVSS
good binding activity | h_Nb6: anti-human PD-L1 nanobody, VHH SEQ ID NO: 37 (protein, h_Nb6 Amino acid sequence of VHH) VHH: DVQLQESGGGLAQPGGSLRLSCAASGFTFSSYAMSWARQAPGKGLEWVAGIYRGGSDTYYADSVKGRFTISRDNTKNTLYLQMNSLKPEDTALYYCIQGWGLGYANYDYWGQGTQVTVSS
good binding activity | h_Nb4: anti-human PD-L1 nanobody, VHH SEQ ID NO: 29 (protein, h_Nb4 Amino acid sequence of VHH) VHH: DVQLQESGGGLVQAGGSLRLSCAAPSRMFSGYTMGWYRQAPGKQRELVAQIANGGFTDYIDSVKGRFSISRDTVLNMMYLQMNSLKPEDTAVYYCNLVLVNGIPTRNWGQGTQVTVSS
good binding activity | h_Nb26: anti-human PD-L1 nanobody, VHH SEQ ID NO: 56 (protein, h_Nb26 Amino acid sequence of VHH) VHH: DVQLQESGGGLVQPGGSLRLSCAAPGSIFRINAMGWYRQAPGKQRELVAAITSGGSTNYADSVQGRFTISRDNAKNTVYLQMNSLKPEDTAVYYCNVERRRPPHYYSDYDFDWGQGTQVTVSS
